Target: T1, biotinylated CD59 (Homo sapiens, UniProt P13987)
T1 construct: Recombinant soluble human CD59 with an additional C-terminal cysteine residue
T1 sequence (P13987 26-102 limits assumed): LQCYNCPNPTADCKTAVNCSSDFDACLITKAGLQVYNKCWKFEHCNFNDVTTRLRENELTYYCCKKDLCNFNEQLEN
Experiment: mRNA-display cyclic peptide screen against CD59-biotin, NGS abundance after 6th selection round
Details: for Percentage Seq I: counts normalised by total counts of sample Seq I; for Percentage Seq I / Percentage Seq II: percentage of the pool; for Percentage Seq I / Percentage Seq II / Percentage Average / Percentage of the pool, averaged across the two sequencing samples / Percentage of the pool, Seq I / Percentage of the pool, Seq II: sheet R6; for Percentage Seq II: counts normalised by total counts of sample Seq II; for Percentage Average: percentage of the pool averaged across the two sequencing samples; for Counts Seq I / Counts Seq II: raw NGS counts of peptide sequence; for Counts Seq I: sequencing sample Seq I; for Counts Seq I / Counts Seq II / Counts (raw counts for peptide sequence), Seq I / Counts (raw counts for peptide sequence), Seq II: sheet R6 (6th selection round); for Counts Seq II: sequencing sample Seq II; for Counts (raw counts for peptide sequence), Seq I: NGS sample Seq I; for Counts (raw counts for peptide sequence), Seq II: NGS sample Seq II; for Percentage of the pool, averaged across the two sequencing samples: average of Seq I and Seq II; for Percentage of the pool, Seq I: counts normalised by total counts of NGS sample Seq I; for Percentage of the pool, Seq II: counts normalised by total counts of NGS sample Seq II
Source text: To discover novel non‐protein CD59 ligands, we screened a library of 10^12 cyclic peptides against CD59 using mRNA‐display (Figure 2a).^[ [23], [24], [25], [26], [27], [28], [29] ^] Briefly, an mRNA library was designed in which the start codon was reprogrammed from Met to N‐chloroacetyl‐D‐Tyr (ClAc‐D‐Tyr), followed by 10–12 randomly encoded natural amino acids, a Cys residue, a (GlySer)3 linker, and a stop codon. […] The total library diversity was 1.51 × 10^13 molecules, comprising 5.02 × 10^12 molecules of each macrocycle size, covering a subset of the maximum theoretical diversity of this library design. Following in vitro translation, ClAc‐D‐Tyr spontaneously reacts with either the C‐terminal Cys or a Cys in the random region, yielding macrocyclic thioether peptides. Hits from the library were identified through iterative enrichment and amplification against biotinylated CD59, then immobilized on streptavidin beads. Fifteen hit sequences (CP‐01 to CP‐15), enriched with abundance >1% relative to the total pool of recovered binders after the 6th round of selection, were synthesized by solid phase peptide synthesis (SPPS), without the (Gly‐Ser)3 linker.
Figure 2 Discovery of macrocyclic peptide ligands with nanomolar CD59 affinity using mRNA display. a) The selection process. PCR = polymerase chain reaction, SPPS = solid phase peptide synthesis. b) Table showing details of the peptides with nanomolar affinity for CD59 as well as the binding affinity of the lead inhibitor of CD59, rILYd4. K D values are presented as the average of three technical replicates ± SEM. Structures of all peptides and SPR sensograms are presented in Figures S1 and S2. *indicates the presented sequences are the variable regions of these cyclic peptides; each is flanked by an N‐terminal Ac‐D‐Tyr cyclized to a C‐terminal Cys. R6 abundance (%) is defined as (the given number of NGS reads for a given sequence/the total number of reads of unique sequences observed in NGS)*100 following the 6th selection round. c) Representative sensogram of the interaction between CP‐06 with immobilized CD59 by SPR analysis. Inset showing the equilibrium binding curve of CP‐06 to CD‐59. Below in the box are the association and dissociation rate constants of CP‐06. Concentrations are plotted in descending order from 800‐3.1 nM in line with their position on the legend. […] (nM)'; the box with Kon/Koff has no label of its own / ILYd4: the label may be cut off at the left edge (possibly 'rILYd4') / CP-02, KD: 15.3 ± 0.2, small print, 3 or 8 uncertain / CP-03, KD: 23.4 ± 0.7, small print / CP-06, KD: 11.3 ± 0.0, small print, 3 or 8 uncertain / CP-13, KD: 10.8 ± 0.7, small print, 8 or 6 uncertain / ILYd4, KD: 48.3 ± 1.1, small print, 8 and 3 uncertain
The mRNA-display cyclic peptide screen was performed against CD59-biotin by T.E.M: DNA templates for transcription were generated by PCR in a similar manner to that previously described.^2 RNA oligonucleotides were transcribed from the DNA templates using T7 RNA polymerase and purified by phenol/chloroform extraction followed by ethanol precipitation. Oligonucleotide concentrations were determined spectroscopically by absorbance at 260 nm. In the first selection round a 1:1:1 molar ratio of NNK10/NNK11/NNK12 was used. The procedure for selection rounds 2-6 is described below; round 1 was conducted at twice the scale.
RNA encoding for the peptide library ligated to a puromycin-modified oligonucleotide was […] (final [RNA] = 2.5 µM) using a customised PURE express kit (lacking release factor 1 and methionine, supplemented with […] initiator tRNA acylated with N-chloroacetyl-d-tyrosine prepared as previously described)^3 in a final volume of 5.6 µL for 1 hour at 37 °C.
This mixture was incubated at 42 °C for 1 hour before being diluted to 500 µL with PBS (10 mM Na-PO4 pH 7.4, 2.7 mM KCl, 137 mM NaCl) and 0.5 µL taken for subsequent use in qPCR. […]

Row | Sequence | Percentage Seq I | Percentage Seq II | Percentage Average | Counts Seq I | Counts Seq II | Counts (raw counts for peptide sequence), Seq I | Counts (raw counts for peptide sequence), Seq II | Percentage of the pool, averaged across the two sequencing samples | Percentage of the pool, Seq I | Percentage of the pool, Seq II
1 | TILGNKHYVRG | 0.140% | 0.160% | 0.150% | 614 | 69 |  |  |  |  | 
2 | GYLNECHTLYTQ | 0.034% | 0.051% | 0.043% | 149 | 22 |  |  |  |  | 
3 | HQECWARGSRE |  |  |  |  |  | 68 | 5 | 0.014% | 0.016% | 0.012%
4 | RGGTRDTIWG | 0.078% | 0.063% | 0.070% | 340 | 27 |  |  |  |  | 
5 | YVTGNRDHTRG |  |  |  |  |  | 66 | 8 | 0.017% | 0.015% | 0.019%
6 | QWNRWYGMDEL | 0.284% | 0.260% | 0.272% | 1243 | 112 |  |  |  |  | 
7 | SAWGNRQIQYF | 0.023% | 0.030% | 0.027% | 102 | 13 |  |  |  |  | 
8 | FARGDLYSVLG |  |  |  |  |  | 71 | 5 | 0.014% | 0.016% | 0.012%
9 | GRRNECLSRTS |  |  |  |  |  | 68 | 3 | 0.011% | 0.016% | 0.007%
10 | LCAENPLRPR | 0.075% | 0.077% | 0.076% | 329 | 33 |  |  |  |  | 
11 | FATGNRDHTRG | 0.027% | 0.014% | 0.020% | 117 | 6 |  |  |  |  | 
12 | YLSGSSNFARG |  |  |  |  |  | 48 | 7 | 0.014% | 0.011% | 0.016%
13 | IAFGSRFHSYQ | 0.584% | 0.647% | 0.616% | 2554 | 279 |  |  |  |  | 
14 | FIFGNRNWTFG | 0.021% | 0.021% | 0.021% | 94 | 9 |  |  |  |  | 
15 | QWNRWYGIDEL | 0.075% | 0.070% | 0.072% | 329 | 30 |  |  |  |  | 
16 | CYSLRLGPETV |  |  |  |  |  | 37 | 6 | 0.011% | 0.00846% | 0.014%
17 | TYGSRFCPQYCAAAAAAARTGGG | 0.030% | 0.037% | 0.034% | 133 | 16 |  |  |  |  | 
18 | ASWLPSPCKFS |  |  |  |  |  | 73 | 4 | 0.013% | 0.017% | 0.009%
19 | SRNGIQFTCS | 0.036% | 0.037% | 0.037% | 158 | 16 |  |  |  |  | 
20 | IQSGSQSWSRG | 0.037% | 0.035% | 0.036% | 164 | 15 |  |  |  |  | 

Reference: publication PMC12207370, “Macrocyclic Peptide Probes for Immunomodulatory Protein CD59: Potent Modulators of Bacterial Toxin Activity and Antibody‐Dependent Cytotoxicity” (Angewandte Chemie (International Ed. in English), 2025)
